The values that follow come from the supplement of paper PMC6757056.

First the molecules themselves.
B1: library; a variant is named by its letters at N, in order (parent)
chain: GCUGUCACCGGUGUAUUACCCUAGUGGUCGACCGGUCUGAUGAGUCUNNNNNNAGACGAAACAGC

In data set [1] the parent is B1. The data set can be described thus: FACS-Seq fitted mean relative fluorescence mCherry/BFP without ligand (log10 relative fluorescence); ligand: hypoxanthine (xanthine aptamer); higher = higher reporter protein expression. Conditions: HEK293T, ligand present: no. The gist of the method: (§1)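 Fluorescence figures are normalized fitted normal means of sequenced bin counts. Enriched, lentivirally transduced HEK293T libraries with a ribozyme-switch mCherry reporter and EF1α-BFP were held 48 h with or without ligand, then sorted into 6 mCherry/BFP bins. PCR-amplified, barcoded genomic DNA from each bin was sequenced on MiSeq. Means of log10(mCherry/BFP) were scaled to five spiked-in control ribozymes.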

In data set [2] the parent is B1. The data set can be described thus: normalized RNA/DNA level with ligand (relative to sTRSVctl = 100) (log10 (% of sTRSVctl)); ligand: hypoxanthine (xanthine aptamer); higher = less ribozyme self-cleavage, higher mRNA level. Particulars: ligand concentration (+) RNA-Seq: 5 mM, HEK293T, reporter: mCherry (pCS4076), ligand present: yes. The method in brief:
(§2)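 RNA level was computed as RNA reads over DNA reads divided by a spiked-in non-cleaving sequence or by the top sequences, then scaled and log-transformed. Scaling was ×100 with log10, the top group was 25 sequences, and the threshold was ≥100 DNA reads. The reads came from HEK293T cells transfected at 4 µg per 6-well well with ribozyme switch library plasmids (mCherry, or eGFP in some ligand experiments). Total RNA was extracted with EDTA 72 h after transfection, with any ligand added 1 h before it.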

Variants of B1 are the subject of data set [3]. As to the kind of experiment: normalized RNA/DNA level without ligand (relative to sTRSVctl = 100) (log10 (% of sTRSVctl)); ligand: hypoxanthine (xanthine aptamer); higher = less ribozyme self-cleavage, higher mRNA level. Particulars: HEK293T, reporter: mCherry (pCS4076), ligand present: no. The method in brief: as §2
Data set [4] covers variants of B1. As to the kind of experiment: FACS-Seq fitted mean relative fluorescence mCherry/BFP with ligand (log10 relative fluorescence); ligand: hypoxanthine (xanthine aptamer); ligand concentration (+) FACS-Seq: 5 mM; higher = higher reporter protein expression. Particulars: HEK293T, ligand present: yes. The method in brief:
as §1

± gives the standard deviation of the averaged measurements.

On to GCUGUCACCGGUGUAUUACCCUAGUGGUCGACCGGUCUGAUGAGUCUGUCCGGAGACGAAACAGC, for which the “FACS-Seq fitted mean (log10)” value was determined as 0.2204 ± 0.002 in data set [1] and 0.524 ± 0.11 in data set [4]. In addition, in data set [2], the “normalized RNA/DNA level with ligand (log10)” value is 1.9355 ± 0.0013. Besides, the “normalized RNA/DNA level without ligand (log10)” value in data set [3] stood at 1.64 ± 0.081.

In the case of GCUGUCACCGGUGUAUUACCCUAGUGGUCGACCGGUCUGAUGAGUCUAUCAGUAGACGAAACAGC, the “FACS-Seq fitted mean (log10)” value in data set [1] worked out at 0.169 ± 0.016; in data set [4] it was 0.476 ± 0.069. For the same variant, the “normalized RNA/DNA level with ligand (log10)” value in data set [2] amounted to 1.885 ± 0.012. Besides, the “normalized RNA/DNA level without ligand (log10)” value in data set [3] was found to be 1.772 ± 0.0019.

Turning to GCUGUCACCGGUGUAUUACCCUAGUGGUCGACCGGUCUGAUGAGUCUAUCAGGAGACGAAACAGC, the entries for the “FACS-Seq fitted mean (log10)” value in data set [1] and in data set [4] were 0.386 ± 0.072 and 0.617 ± 0.048, respectively. For the same variant, in data set [2], the “normalized RNA/DNA level with ligand (log10)” value was 1.87 ± 0.01. Also, in data set [3], the “normalized RNA/DNA level without ligand (log10)” value is 1.48 ± 0.061.

For the variant GCUGUCACCGGUGUAUUACCCUAGUGGUCGACCGGUCUGAUGAGUCUAUCAUUAGACGAAACAGC, the “FACS-Seq fitted mean (log10)” value turned out to be 0.581 ± 0.01 in data set [1] and 0.691 ± 0.072 in data set [4]. For the same variant, the “normalized RNA/DNA level with ligand (log10)” value in data set [2] was 1.96 ± 0.037. Further, the “normalized RNA/DNA level without ligand (log10)” value in data set [3] was determined as 1.96 ± 0.029.

Turning to GCUGUCACCGGUGUAUUACCCUAGUGGUCGACCGGUCUGAUGAGUCUAUCAUAAGACGAAACAGC, the “FACS-Seq fitted mean (log10)” value in data set [1] came out at 0.467 ± 0.023; in data set [4], 0.562 ± 0.061. Moreover, the “normalized RNA/DNA level with ligand (log10)” value in data set [2] was 1.92 ± 0.035. For the same variant, the “normalized RNA/DNA level without ligand (log10)” value in data set [3] was determined as 1.798 ± 0.0029.

As to GCUGUCACCGGUGUAUUACCCUAGUGGUCGACCGGUCUGAUGAGUCUUUCCCGAGACGAAACAGC, the “FACS-Seq fitted mean (log10)” value in data set [1] was 0.397 ± 0.063; in data set [4], 0.514 ± 0.064. Further, the “normalized RNA/DNA level with ligand (log10)” value in data set [2] turned out to be 1.919 ± 0.0045. The “normalized RNA/DNA level without ligand (log10)” value in data set [3] came to 1.83 ± 0.046.

On to GCUGUCACCGGUGUAUUACCCUAGUGGUCGACCGGUCUGAUGAGUCUAUCCAAAGACGAAACAGC, for which the “FACS-Seq fitted mean (log10)” value in data set [1] worked out at 0.618 ± 0.059; in data set [4], 0.708 ± 0.06. Also, the “normalized RNA/DNA level with ligand (log10)” value in data set [2] stood at 1.923 ± 0.016. The “normalized RNA/DNA level without ligand (log10)” value in data set [3] is 1.79 ± 0.07.

Regarding GCUGUCACCGGUGUAUUACCCUAGUGGUCGACCGGUCUGAUGAGUCUAUCCAGAGACGAAACAGC, the “FACS-Seq fitted mean (log10)” value in data set [1] came to 0.222 ± 0.062; in data set [4], 0.446 ± 0.052. Besides, in data set [2], the “normalized RNA/DNA level with ligand (log10)” value was determined as 1.92 ± 0.034. In addition, the “normalized RNA/DNA level without ligand (log10)” value in data set [3] amounted to 1.55 ± 0.096.

For the variant GCUGUCACCGGUGUAUUACCCUAGUGGUCGACCGGUCUGAUGAGUCUAUCCAUAGACGAAACAGC, the “FACS-Seq fitted mean (log10)” value is 0.676 ± 0.075 in data set [1] and 0.6901 ± 0.0038 in data set [4]. Besides, the “normalized RNA/DNA level with ligand (log10)” value in data set [2] was determined as 1.96 ± 0.015. The “normalized RNA/DNA level without ligand (log10)” value in data set [3] is 1.86 ± 0.032.

On to GCUGUCACCGGUGUAUUACCCUAGUGGUCGACCGGUCUGAUGAGUCUGUCAGUAGACGAAACAGC, for which the figures for the “FACS-Seq fitted mean (log10)” value in data set [1] and in data set [4] were 0.34 ± 0.024 and 0.492 ± 0.11, respectively. The “normalized RNA/DNA level with ligand (log10)” value in data set [2] came out at 1.94 ± 0.023. Also, in data set [3], the “normalized RNA/DNA level without ligand (log10)” value was determined as 1.833 ± 0.0092.

On to GCUGUCACCGGUGUAUUACCCUAGUGGUCGACCGGUCUGAUGAGUCUGUCAGGAGACGAAACAGC, for which the “FACS-Seq fitted mean (log10)” value was found to be 0.326 ± 0.071 in data set [1] and 0.67 ± 0.0068 in data set [4]. Moreover, the “normalized RNA/DNA level with ligand (log10)” value in data set [2] stood at 1.858 ± 0.016. Moreover, the “normalized RNA/DNA level without ligand (log10)” value in data set [3] worked out at 1.46 ± 0.042.

Regarding GCUGUCACCGGUGUAUUACCCUAGUGGUCGACCGGUCUGAUGAGUCUGUCCACAGACGAAACAGC, the “FACS-Seq fitted mean (log10)” value in data set [1] is -0.048 ± 0.034; in data set [4], 0.0349 ± 0.08. Further, the “normalized RNA/DNA level with ligand (log10)” value in data set [2] came out at 1.94 ± 0.054. For the same variant, in data set [3], the “normalized RNA/DNA level without ligand (log10)” value is 1.848 ± 0.0045.

Turning to GCUGUCACCGGUGUAUUACCCUAGUGGUCGACCGGUCUGAUGAGUCUGUCCAAAGACGAAACAGC, the results for the “FACS-Seq fitted mean (log10)” value in data set [1] and in data set [4] were 0.669 ± 0.0074 and 0.655 ± 0.08, respectively. In addition, the “normalized RNA/DNA level with ligand (log10)” value in data set [2] was determined as 1.89 ± 0.065. For the same variant, the “normalized RNA/DNA level without ligand (log10)” value in data set [3] turned out to be 1.79 ± 0.035.

As to GCUGUCACCGGUGUAUUACCCUAGUGGUCGACCGGUCUGAUGAGUCUGUCCAGAGACGAAACAGC, the entries for the “FACS-Seq fitted mean (log10)” value in data set [1] and in data set [4] were 0.3111 ± 0.00085 and 0.723 ± 0.0074, respectively. Besides, the “normalized RNA/DNA level with ligand (log10)” value in data set [2] came to 1.863 ± 0.015. The “normalized RNA/DNA level without ligand (log10)” value in data set [3] was 1.48 ± 0.054.

Consider GCUGUCACCGGUGUAUUACCCUAGUGGUCGACCGGUCUGAUGAGUCUAUCCGCAGACGAAACAGC, for which the “FACS-Seq fitted mean (log10)” value stood at 0.3452 ± 0.0029 in data set [1] and 0.517 ± 0.049 in data set [4]. In addition, the “normalized RNA/DNA level with ligand (log10)” value in data set [2] was determined as 1.931 ± 0.011. Besides, in data set [3], the “normalized RNA/DNA level without ligand (log10)” value turned out to be 1.8 ± 0.024.

Consider GCUGUCACCGGUGUAUUACCCUAGUGGUCGACCGGUCUGAUGAGUCUAUCCGAAGACGAAACAGC, for which the “FACS-Seq fitted mean (log10)” value was found to be 0.296 ± 0.067 in data set [1] and 0.5594 ± 0.0019 in data set [4]. Also, the “normalized RNA/DNA level with ligand (log10)” value in data set [2] is 1.92 ± 0.014. In addition, the “normalized RNA/DNA level without ligand (log10)” value in data set [3] turned out to be 1.758 ± 0.012.

On to GCUGUCACCGGUGUAUUACCCUAGUGGUCGACCGGUCUGAUGAGUCUUUCCACAGACGAAACAGC, for which the “FACS-Seq fitted mean (log10)” value was determined as 0.451 ± 0.048 in data set [1] and 0.5314 ± 0.0026 in data set [4]. In addition, in data set [2], the “normalized RNA/DNA level with ligand (log10)” value was 1.97 ± 0.077. Moreover, the “normalized RNA/DNA level without ligand (log10)” value in data set [3] came out at 1.88 ± 0.027.

For the variant GCUGUCACCGGUGUAUUACCCUAGUGGUCGACCGGUCUGAUGAGUCUCUCCAUAGACGAAACAGC, the “FACS-Seq fitted mean (log10)” value in data set [1] is -0.247 ± 0.08; in data set [4], 0.134 ± 0.038. Besides, in data set [2], the “normalized RNA/DNA level with ligand (log10)” value amounted to 1.96 ± 0.023. Moreover, in data set [3], the “normalized RNA/DNA level without ligand (log10)” value turned out to be 1.8932 ± 0.0013.

Regarding GCUGUCACCGGUGUAUUACCCUAGUGGUCGACCGGUCUGAUGAGUCUAUCCCGAGACGAAACAGC, the “FACS-Seq fitted mean (log10)” value in data set [1] came out at 0.0616 ± 0.017; in data set [4] it was 0.148 ± 0.14. For the same variant, the “normalized RNA/DNA level with ligand (log10)” value in data set [2] is 1.86 ± 0.04. The “normalized RNA/DNA level without ligand (log10)” value in data set [3] came to 1.51 ± 0.11.

Consider GCUGUCACCGGUGUAUUACCCUAGUGGUCGACCGGUCUGAUGAGUCUGUCCCGAGACGAAACAGC, for which the entries for the “FACS-Seq fitted mean (log10)” value in data set [1] and in data set [4] were 0.415 ± 0.0031 and 0.511 ± 0.028, respectively. Moreover, the “normalized RNA/DNA level with ligand (log10)” value in data set [2] amounted to 1.91 ± 0.0099. In data set [3], the “normalized RNA/DNA level without ligand (log10)” value turned out to be 1.64 ± 0.12.

As for GCUGUCACCGGUGUAUUACCCUAGUGGUCGACCGGUCUGAUGAGUCUGUCAUGAGACGAAACAGC, the “FACS-Seq fitted mean (log10)” value in data set [1] was found to be 0.242 ± 0.025; in data set [4], 0.491 ± 0.014. In addition, the “normalized RNA/DNA level with ligand (log10)” value in data set [2] was determined as 1.9 ± 0.027. Also, the “normalized RNA/DNA level without ligand (log10)” value in data set [3] was determined as 1.53 ± 0.025.
